Results published in paper PMC8158685, “MexAB-OprM Efflux Pump Interaction with the Peptidoglycan of Escherichia coli and Pseudomonas aeruginosa” (International Journal of Molecular Sciences, 2021).

T1: OprM deleted of the flexible C-terminus residues 473-485 (OprMΔCter) (P. aeruginosa (PAO1 genome as template), UniProt Q51487 18-472)
T1 construct: signal peptide in the construct (forward primer begins at the ATG of the precursor); OprM of Pseudomonas aeruginosa PAO1 without its last 13 residues 473-485; PCR fragment NdeI-XmaI in pBAD33; also called OprM∆Cter; source: E. coli C43 deleted of acrB, pBAD33, purified (Ni-NTA, Superdex 200) in DDM
T1 sequence (looked up): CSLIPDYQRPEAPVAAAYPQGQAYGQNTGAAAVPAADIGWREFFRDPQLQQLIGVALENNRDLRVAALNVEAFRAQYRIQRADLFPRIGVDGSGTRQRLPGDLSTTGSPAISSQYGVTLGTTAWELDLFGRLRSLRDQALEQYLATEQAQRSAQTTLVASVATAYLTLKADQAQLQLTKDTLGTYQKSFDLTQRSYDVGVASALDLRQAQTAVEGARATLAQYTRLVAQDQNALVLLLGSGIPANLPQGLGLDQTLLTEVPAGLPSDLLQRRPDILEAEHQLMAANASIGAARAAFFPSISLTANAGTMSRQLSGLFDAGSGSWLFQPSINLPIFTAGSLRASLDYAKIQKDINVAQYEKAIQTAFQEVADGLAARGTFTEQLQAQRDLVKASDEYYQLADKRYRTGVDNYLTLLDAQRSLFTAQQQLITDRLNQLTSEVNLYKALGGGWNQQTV

B1: OprM (wild type, full-length) (natural protein)
chain: CSLIPDYQRPEAPVAAAYPQGQAYGQNTGAAAVPAADIGWREFFRDPQLQQLIGVALENNRDLRVAALNVEAFRAQYRIQRADLFPRIGVDGSGTRQRLPGDLSTTGSPAISSQYGVTLGTTAWELDLFGRLRSLRDQALEQYLATEQAQRSAQTTLVASVATAYLTLKADQAQLQLTKDTLGTYQKSFDLTQRSYDVGVASALDLRQAQTAVEGARATLAQYTRLVAQDQNALVLLLGSGIPANLPQGLGLDQTLLTEVPAGLPSDLLQRRPDILEAEHQLMAANASIGAARAAFFPSISLTANAGTMSRQLSGLFDAGSGSWLFQPSINLPIFTAGSLRASLDYAKIQKDINVAQYEKAIQTAFQEVADGLAARGTFTEQLQAQRDLVKASDEYYQLADKRYRTGVDNYLTLLDAQRSLFTAQQQLITDRLNQLTSEVNLYKALGGGWNQQTVTQQQTAKKEDPQA
notes: OprM, outer membrane factor of the MexAB-OprM efflux pump, Pseudomonas aeruginosa; wild type, 'OprM full-length'; The pure protein was reloaded on Ni-NTA for the detergent exchange, so the His tag was probably still on it; Natural OprM is a lipoprotein whose signal peptide is cut on export; also called OMF; outer-membrane factor channel; source: E. coli C43 deleted of acrB, pBAD33, purified …
B2: MexA (natural protein)
chain: CGKSEAPPPAQTPEVGIVTLEAQTVTLNTELPGRTNAFRIAEVRPQVNGIILKRLFKEGSDVKAGQQLYQIDPATYEADYQSAQANLASTQEQAQRYKLLVADQAVSKQQYADANAAYLQSKAAVEQARINLRYTKVLSPISGRIGRSAVTEGALVTNGQANAMATVQQLDPIYVDVTQPSTALLRLRRELASGQLERAGDNAAKVSLKLEDGSQYPLEGRLEFSEVSVDEGTGSVTIRAVFPNPNNELLPGMFVHAQLQEGVKQKAILAPQQGVTRDLKGQATALVVNAQNKVELRVIKADRVIGDKWLVTEGLNAGDKIITEGLQFVQPGVEVKTVPAKNVASAQKADAAPAKTDSKG
notes: MexA, periplasmic membrane fusion protein of the MexAB-OprM efflux pump, Pseudomonas aeruginosa; wild type; The pure protein was reloaded on Ni-NTA for the detergent exchange, so the His tag was probably still on it; Natural MexA is a lipoprotein whose signal peptide is cut; also called MFP; periplasmic membrane fusion protein; source: for one experiment exchanged into C12E8 on Ni-NTA

How the values were obtained:
[1] = biological target: the molecule itself; test: SEC; Superdex 200 gel filtration in TBS (20 mM Tris-HCl pH 8, 150 mM NaCl) with 0.05% DDM, last step of the purification
MexA = biological target: B2; test: pull-down; PG of P. aeruginosa, DDM; MexA and OprM mixed at 3:1 compared with 2:1; ratio in the retained complex from relative band intensities on SDS-PAGE; conditions: both partners purified
[2] = biological target: B1; test: pull-down; purified insoluble peptidoglycan (PG) of E. coli C43 as the pelleted matrix; MexA and OprM pre-mixed 2:1 (PG:MexA:OprM 100:2:1); 20 mM Tris-HCl pH 8.0, 300 mM NaCl, 0.05% DDM; 1 h room temperature; three washes; pellet on SDS-PAGE; proteins released by lysozyme; conditions: both partners purified
[3] = biological target: T1, OprM deleted of the flexible C-terminus …; test: pull-down; purified insoluble PG of P. aeruginosa PAO1 as the pelleted matrix; MexA and OprM pre-mixed 2:1 (PG:MexA:OprM 100:2:1); 20 mM Tris-HCl pH 8.0, 300 mM NaCl, 0.05% DDM; 1 h room temperature; three washes; pellet on SDS-PAGE; proteins released by lysozyme; conditions: both partners purified

Q: What does the source list for B1?
A: stoichiometry N [1]: 3; stoichiometry N (MexA): 2 MexA:OprM

Q: Does B2 bind [2]?
A: binds

Q: Does B2 bind [3]?
A: binds
